Experimental data: the RNAGym collection of RNA variant scans (doi:10.7554/elife.90254)

B1: LINE1-full (parent)
chain: UACGUAGGUGGUUUUCCCCUGAUAGUGCUAAGGGGGCCUGGAAGUUUGGACUGGGCAGAGCUCAACACAGCGUGGCAAAGUGGCUGUGGCUAGACUGCCUCUCUGGAUUCCUCGUCACUCAGCAGGGCAUCUCUGAGAGAAAUGCC

Variants of: B1
Test: self-cleavage, relative activity (ratio to wild type); higher = more cleavage; in vitro, sequencing; the parent is a self-cleaving ribozyme

Variant | self-cleavage
UACGUAGGUGGUUUUCCCCUGAUAGUGCUAAGGGGGCCUAGAAGUUUGGACUGGGCAGAGCUCAACACAGCGUGGCAAAGUGGCUGUGGCUAGUCUGCCUCUCUGGAUUCCUCGUCACUCAGCAGGGCAUCUCUGAGAGAAAUGCC [G40A A94U] | 0.26
UACGUAGGUGGUUUUCCCCUGUUAGUGCUAAGGGGGCCUGGAAGUUUGGACUGGGCAGAGCUCAACACAGCGUGGCAAAGUGGCUGUGGCUAGACUGCCUCUCUGGAUUCCUCGUCACGCAGCAGGGCAUCUCUGAGAGAAAUGCC [A22U U119G] | 2.23
UACGUAGGUGGUUUUCCCCUGAUAGUGCUAAGGGGGCCUGGAAGUUUGGACUGGGCAGAGCACAACACAGCGUGGCAAAGUGGCCGUGGCUAGACUGCCUCUCUGGAUUCCUCGUCACUCAGCAGGGCAUCUCUGAGAGAAAUGCC [U62A U85C] | 0.08
UACGUAGGUGGUUUUCCCCUGAUAGUGCUAAGGGGGCCUGGAAGCUUGGACUGGGCAGAGCUCAACACAGCGUGGCAAAGUGGCUGUGGCUAGACUGCCUCUCUGGAUUCCUCGUCACUCAGCGGGGCAUCUCUGAGAGAAAUGCC [U45C A124G] | 1.18
UACGUAGGUGGUUUUCCCCUGAUAGUGCUAAGGGGGCCUGGAAGUUUGGACUGGGCAGAGCUCAACACAGCGUGGCAAAGUGGCUGCGGCUAGACUGCCUCUCUGGAUUCCUCGUCACUCUGCAGGGCAUCUCUGAGAGAAAUGCC [U87C A121U] | 0.2
UACGUAGGUGGGUUUCCCCUGAUAGUGCUAAGGGGGCCUGGAAGUUAGGACUGGGCAGAGCUCAACACAGCGUGGCAAAGUGGCUGUGGCUAGACUGCCUCUCUGGAUUCCUCGUCACUCAGCAGGGCAUCUCUGAGAGAAAUGCC [U12G U47A] | 0.95
UACGUAGGUGGUUUUCCCCUGAUAGUGCUAAGGGGGCCUGGAAGUCUGGACUGGGCUGAGCUCAACACAGCGUGGCAAAGUGGCUGUGGCUAGACUGCCUCUCUGGAUUCCUCGUCACUCAGCAGGGCAUCUCUGAGAGAAAUGCC [U46C A57U] | 0.17
UACGUAGGUGGUUUUCCCCUGAUAGUGCUAAGGGGGCCUGGAAGUUUGGACUGGGCAGAGCUCAACACAGCGUGGCAAAGUGGCUGUGGCUAGACUGCCUCUCUGGAAUCCUCGUCACCCAGCAGGGCAUCUCUGAGAGAAAUGCC [U108A U119C] | 1.41
UACGUAGGUGGUUUUCCCCUGAUAGUGCUAAGGGGGCCUGGAAGUUUGGACUGGGCAGAGCUCAACACAGCGUGGCAAAGUGGCUGUGGCUAGACUGCCACUCUGGAUUCCUCGUCACUCAGCAGGGCAUCUCUGAGAUAAAUGCC [U100A G139U] | 0.31
UACGUAGGUGGUUUUCCCCUGAUAGUGCAAAGGGGGCCUGGAAGUUUGGACUGGGCAGAGCUCAACACAGCGUGGCAAAGUGGCUGUGGCUAGACUGCCUCUCUGGAUUCCUCGUCACUCAGCAGGGCAUCUCUGAGAGGAAUGCC [U29A A140G] | 1.3
UACGUAGGUGGUUUUCCCCUGAUAGUGCUAAGGGGGCCUGGAAGUUUGGACUGGGCAGAGCUCAACACAGCAUGGCAAAGUGGCUGUGGCUAGACUGCCUCUCUGGAUUCCUCGUCUCUCAGCAGGGCAUCUCUGAGAGAAAUGCC [G72A A117U] | 1.54
UACGUAGGUGGUUUUCCCCUGAUAGUGCUAAGGGCGCCUGGAAGUUUGGACUGGGCAGAGCUCAACACAGCGUGGCAAAGUGGCUGUGGCUAGACCGCCUCUCUGGAUUCCUCGUCACUCAGCAGGGCAUCUCUGAGAGAAAUGCC [G35C U96C] | 0.26
UACGUAGGUGGUUUUCCCCUGAUAGUGCUAAGGGGGCCUGGAAGUUCGGACUGGGCAGAGCUCAACACAGCGUGGCAAAGUGGCUGUGGCUAGACUGCCUCUCUGGAUUCCUCGUCGCUCAGCAGGGCAUCUCUGAGAGAAAUGCC [U47C A117G] | 1.81
UACGUAGGUGGUUUUCCCCUGAUAGUGCUAAGGGGGCCUGGAAGUUUGGGCUGGGCAGAGCUCAACACAGCGUGGCAAAGUGGCUGUGGCUAGACUGCCUCUCUGGAUUCCUCAUCACUCAGCAGGGCAUCUCUGAGAGAAAUGCC [A50G G114A] | 0.98
UACGUAGGCGGUUUUCCCCCGAUAGUGCUAAGGGGGCCUGGAAGUUUGGACUGGGCAGAGCUCAACACAGCGUGGCAAAGUGGCUGUGGCUAGACUGCCUCUCUGGAUUCCUCGUCACUCAGCAGGGCAUCUCUGAGAGAAAUGCC [U9C U20C] | 1.05
UACGUAGGUGGUUUUCCCCUGAUAGUGCUAAGGGGACCUGGAAGUUUGGACUGGGCAGAGCUCAACACAGCGAGGCAAAGUGGCUGUGGCUAGACUGCCUCUCUGGAUUCCUCGUCACUCAGCAGGGCAUCUCUGAGAGAAAUGCC [G36A U73A] | 1.84
UACGUAGGUGGUUUUCCCCUGAUAGUGCUAAGGGGGCCUGGAAGUUUGGACUGGGCAGAGCUCGACACAGCGUGGCAAAGUGGCUGUGGCUAGACUGCCUCUCUGGAUUCCUCGUCACUCAGCAUGGCAUCUCUGAGAGAAAUGCC [A64G G125U] | 0.33
UACGUAGGUGGUUUUCCCCUGAUAGUGCUAAAGGGGCCUGGAAGUUUGGACUGGGCAGAGCUCAACACAGCGUGGCAAAGUGGCUGUGGCUAGACUGCCUCUCUGGAUUCCUUGUCACUCAGCAGGGCAUCUCUGAGAGAAAUGCC [G32A C113U] | 1.43
UACGCAGGUGGUUUUCCCCUGAUAGUGCUAAGGGGGCCUGGAAGUUUGGACUGGGCAGAGCUCAACACAGCGUGGCAAAGUGGCUGUGGCUAGACUGCCUCUCUGGAUUCCUCGUCACUCAGCAGGGCAUCUCUGAGCGAAAUGCC [U5C A138C] | 0
UACGUAGGUGGUUUUCCCCUGAUAGUGCUAAGGGGGCCUGGAAGUUUGGACUGGGCAGAGCUCAACACAGCGUGGCAAAGUGGCUGUGGCUAGACUGCCUCUCUGGAUUCCUCGUCACUCAGCAGGGCAUCUCUGAGACAAAUGCC [G139C] | 1.53
